According to US20230381333A1 (HANMI PHARM, published 2023):
Bridge positions count the residues as written; N and C are the ends. Square brackets hold non-standard residues; d marks the D form. Ends that are not written are not given here. * marks the point of attachment. Acetyl(2-(4-imidazolyl)) = O=C(Cc1c[nH]cn1)*; Aib = CC(C)(N)C(=O)O

T1: human GIP receptor (human, UniProt P48546 22-466)
T1 sequence (looked up): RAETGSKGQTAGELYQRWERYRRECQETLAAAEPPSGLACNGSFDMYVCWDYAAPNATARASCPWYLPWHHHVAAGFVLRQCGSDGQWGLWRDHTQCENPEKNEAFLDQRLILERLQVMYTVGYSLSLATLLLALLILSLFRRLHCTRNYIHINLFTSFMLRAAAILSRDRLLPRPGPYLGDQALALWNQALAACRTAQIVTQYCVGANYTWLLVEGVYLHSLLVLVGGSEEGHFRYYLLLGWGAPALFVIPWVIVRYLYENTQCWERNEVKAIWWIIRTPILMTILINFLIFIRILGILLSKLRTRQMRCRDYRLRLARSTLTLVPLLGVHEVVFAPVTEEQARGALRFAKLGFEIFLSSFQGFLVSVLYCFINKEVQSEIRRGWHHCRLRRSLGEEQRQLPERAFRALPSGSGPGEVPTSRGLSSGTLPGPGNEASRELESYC


Tests used:
Test in all cases: cell-based or functional assay
human GLP-1 receptor = human GLP-1 receptor (human, UniProt P43220 24-463)
human GCG receptor = human GCG receptor (human, UniProt P47871 26-477)
human GIP receptor = molecular target: T1, human GIP receptor

Sequence of human GCG receptor (P47871 26-477): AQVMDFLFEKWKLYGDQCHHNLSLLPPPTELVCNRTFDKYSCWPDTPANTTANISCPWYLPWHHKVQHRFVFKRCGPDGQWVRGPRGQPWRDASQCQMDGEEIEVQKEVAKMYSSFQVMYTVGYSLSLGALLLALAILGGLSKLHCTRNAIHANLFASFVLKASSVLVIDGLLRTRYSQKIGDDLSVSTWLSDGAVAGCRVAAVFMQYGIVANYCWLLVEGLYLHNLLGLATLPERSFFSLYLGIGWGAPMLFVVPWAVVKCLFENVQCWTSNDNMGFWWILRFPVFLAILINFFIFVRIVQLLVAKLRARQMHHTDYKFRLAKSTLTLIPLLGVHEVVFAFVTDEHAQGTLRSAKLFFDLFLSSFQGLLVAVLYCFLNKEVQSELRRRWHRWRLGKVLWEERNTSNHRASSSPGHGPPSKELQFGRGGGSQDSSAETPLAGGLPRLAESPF

Binder	In vitro activity compared to native-type peptide (%), vs GLP-1 (human GLP-1 receptor) [%]	In vitro activity compared to native-type peptide (%), vs Glucagon (human GCG receptor) [%]	In vitro activity compared to native-type peptide (%), vs GIP (human GIP receptor) [%]
H[Aib]QGTFTSDYSIAMDEIHQKDFVNWLLAQKC (bridge 16-20) [triple agonist of SEQ ID NO: 33]	24.5	< 0.1	10.4
H[Aib]QGTFTSDYSKYLDEKRAQEFVCWLLAQKGKKNDWKHNIT [triple agonist of SEQ ID NO: 28]	17.2	1.6	< 0.1
H[Aib]QGTFTSDYSKYLDEKAAKEFVQWLLNTC (bridge 16-20) [triple agonist of SEQ ID NO: 29]	38.5	6	< 0.1
[Acetyl(2-(4-imidazolyl))]GQGTFTSDLSIQYEEEAQQDFVEWLKDTGPSSGAPPPSHG [triple agonist of SEQ ID NO: 20]	< 0.1	< 0.1	< 0.1
H[Aib]QGTFTSDYSKYLDEKAQKEFVQWLLDTC (bridge 16-20) [triple agonist of SEQ ID NO: 30]	142	0.7	0.8
Y[Aib]QGTFTSDYSKCLDEKRAKEFVQWLLDHHPSSGQPPPS (bridge 16-20) [triple agonist of SEQ ID NO: 22]	20.1	140	59.7
H[Aib]QGTFTSDYSKYLDEKACKDFVQWLLDGGPSSGAPPPS (bridge 16-20) [triple agonist of SEQ ID NO: 32]	151	1.7	8.8
H[Aib]QGTFTSDYSKYLDEKACKEFVQWLLAQ (bridge 16-20) [triple agonist of SEQ ID NO: 31]	135	2.2	2.4
H[Aib]QGTFTSDYSKYLDERACQDFVQWLLDQGGPSSGAPPPS [triple agonist of SEQ ID NO: 27]	83.1	0.8	0.9
Y[Aib]QGTFTSDYSKYLDECRAKEFVQWLKNGGPSSGAPPPS (bridge 16-20) [triple agonist of SEQ ID NO: 24]	41.2	9.3	< 0.1
H[Aib]QGTFTSDCSKYLDSRAAQDFVQWLLDGGPSSGAPPPS [triple agonist of SEQ ID NO: 26]	64.5	0.2	< 0.1
H[Aib]QGTFTSDCSKYLDERAAQDFVQWLLDGGPSSGAPPPS [triple agonist of SEQ ID NO: 25]	82.6	0.1	< 0.1
Y[Aib]QGTFTSDYSKYLDECRAKEFVQWLLDHHPSSGQPPPS (bridge 16-20) [triple agonist of SEQ ID NO: 21]	17.8	267	22.7
Y[Aib]QGTFTSDYSKYLDECRAKEFVQWLLAQKGKKNDWKHNIT (bridge 16-20) [triple agonist of SEQ ID NO: 23]	4.01	9.3	< 0.1
H[Aib]QGTFTSDVSSYLLGQAAKQFIAWLVKGGGPSSGAPPPSC [triple agonist of SEQ ID NO: 3]	1.8	< 0.1	< 0.1
